This assay has as its target T1, TNFR1 (Homo sapiens, UniProt P19438).
T1 chain: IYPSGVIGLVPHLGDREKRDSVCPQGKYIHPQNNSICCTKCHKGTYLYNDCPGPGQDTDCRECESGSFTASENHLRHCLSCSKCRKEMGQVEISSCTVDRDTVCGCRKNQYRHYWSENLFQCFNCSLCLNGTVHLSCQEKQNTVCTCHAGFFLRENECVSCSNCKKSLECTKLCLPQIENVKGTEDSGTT
The assay is described as follows: yeast display SC50.

Results on 14 molecules are retold here after article PMC12416549 (2024).

B1: V55N (designed binder)
chain: MTLQELLREEALRRAEAEAFRYALELLAEKFPEQKEYLLDLAEEIESQIRSLSGNDVEDVRKFLDKEWAWVKELLAEHPAELAEVEAARAARLAELRAEVEAKVAA
For B1, the “apparent Kd (screen)” value came out at 0.956 nM.

B2: E10K (designed binder)
chain: MTLQELLREKALRRAEAEAFRYALELLAEKFPEQKEYLLDLAEEIESQIRSLSGVDVEDVRKFLDKEWAWVKELLAEHPAELAEVEAARAARLAELRAEVEAKVAA
On to B2, for which the “apparent Kd (screen)” value amounted to 8.56 nM.

B3: W70Y (designed binder)
chain: MTLQELLREEALRRAEAEAFRYALELLAEKFPEQKEYLLDLAEEIESQIRSLSGVDVEDVRKFLDKEWAYVKELLAEHPAELAEVEAARAARLAELRAEVEAKVAA
For B3, the “apparent Kd (screen)” value was 1.86 nM.

B4: H78C (designed binder)
chain: MTLQELLREEALRRAEAEAFRYALELLAEKFPEQKEYLLDLAEEIESQIRSLSGVDVEDVRKFLDKEWAWVKELLAECPAELAEVEAARAARLAELRAEVEAKVAA
As to B4, the “apparent Kd (screen)” value stood at 0.593 nM.

B5: A11I (designed binder)
chain: MTLQELLREEILRRAEAEAFRYALELLAEKFPEQKEYLLDLAEEIESQIRSLSGVDVEDVRKFLDKEWAWVKELLAEHPAELAEVEAARAARLAELRAEVEAKVAA
Regarding B5, the “apparent Kd (screen)” value was determined as 0.368 nM.

B6: E101H (designed binder)
chain: MTLQELLREEALRRAEAEAFRYALELLAEKFPEQKEYLLDLAEEIESQIRSLSGVDVEDVRKFLDKEWAWVKELLAEHPAELAEVEAARAARLAELRAEVHAKVAA
Regarding B6, the “apparent Kd (screen)” value is 0.718 nM.

B7: L96Q (designed binder)
chain: MTLQELLREEALRRAEAEAFRYALELLAEKFPEQKEYLLDLAEEIESQIRSLSGVDVEDVRKFLDKEWAWVKELLAEHPAELAEVEAARAARLAEQRAEVEAKVAA
In the case of B7, the “apparent Kd (screen)” value came to 0.539 nM.

B8: F31A (designed binder)
chain: MTLQELLREEALRRAEAEAFRYALELLAEKAPEQKEYLLDLAEEIESQIRSLSGVDVEDVRKFLDKEWAWVKELLAEHPAELAEVEAARAARLAELRAEVEAKVAA
For B8, the “apparent Kd (screen)” value was determined as 0.49 nM.

B9: V55E (designed binder)
chain: MTLQELLREEALRRAEAEAFRYALELLAEKFPEQKEYLLDLAEEIESQIRSLSGEDVEDVRKFLDKEWAWVKELLAEHPAELAEVEAARAARLAELRAEVEAKVAA
As to B9, the “apparent Kd (screen)” value came out at 15.2 nM.

B10: A15E (designed binder)
chain: MTLQELLREEALRREEAEAFRYALELLAEKFPEQKEYLLDLAEEIESQIRSLSGVDVEDVRKFLDKEWAWVKELLAEHPAELAEVEAARAARLAELRAEVEAKVAA
B10: the “apparent Kd (screen)” value was found to be 0.718 nM.

B11: F31Q (designed binder)
chain: MTLQELLREEALRRAEAEAFRYALELLAEKQPEQKEYLLDLAEEIESQIRSLSGVDVEDVRKFLDKEWAWVKELLAEHPAELAEVEAARAARLAELRAEVEAKVAA
In the case of B11, the “apparent Kd (screen)” value was determined as 0.653 nM.

B12: E9F (designed binder)
chain: MTLQELLRFEALRRAEAEAFRYALELLAEKFPEQKEYLLDLAEEIESQIRSLSGVDVEDVRKFLDKEWAWVKELLAEHPAELAEVEAARAARLAELRAEVEAKVAA
As for B12, the “apparent Kd (screen)” value came to 0.49 nM.

B13: P32V (designed binder)
chain: MTLQELLREEALRRAEAEAFRYALELLAEKFVEQKEYLLDLAEEIESQIRSLSGVDVEDVRKFLDKEWAWVKELLAEHPAELAEVEAARAARLAELRAEVEAKVAA
Take B13: the “apparent Kd (screen)” value came to 0.593 nM.

B14: Q34T (designed binder)
chain: MTLQELLREEALRRAEAEAFRYALELLAEKFPETKEYLLDLAEEIESQIRSLSGVDVEDVRKFLDKEWAWVKELLAEHPAELAEVEAARAARLAELRAEVEAKVAA
With B14, the “apparent Kd (screen)” value worked out at 0.539 nM.
